Results: patent publication US8247376B2, “NGAL for reduction and amelioration of ischemic and nephrotoxic injuries” (The Trustees of Columbia University, priority 2004, dated 2012)
Entries after “also recorded” stand apart in the source; their conditions may differ.

Experiments:
Type in all cases: in vivo, mice
[1] = system: endogenous NGAL; assay: Endogenous NGAL expression after exogenous NGAL (real time PCR, immunoblot); design: reduction of the increase in endogenous NGAL RNA / reduction of endogenous NGAL protein in the kidney: dose or concentration left out as unconfirmed
Source text: (§1) After 6 or 24 hr of reperfusion, heparinized plasma, urine and kidney samples were obtained to measure NGAL (polyclonal 1:500), Heme oxygenase-1 (Stressgen, 1:2000), E-cadherin (BD Transduction Labs, 1:2000), N-cadherin (BD Transduction Labs, 1:3000) and GAPDH (Chemicon International, 1:3000) using immunoblots. Plasma was also used for creatinine and blood urea nitrogen colorimetric assays. Sagittal sections of the kidney were fixed in 4% formalin, or were snap frozen for mRNA and protein analysis. Paraffin-embedded sections (5 μm) were stained with hematoxylin-eosin or by an in situ kit (Fluorescein-TUNEL, Roche) for apoptotic nuclei or for total nuclei (Toprol, Molecular Probes). For cell proliferation analysis, BrdU was injected into the peritoneum 1 hour before sacrifice, and cryostat sections were stained with anti-BrdU (Roche) according to the manufacturer.
Total RNA was extracted from mouse kidneys using RNeasy mini kit (Qiagen) with on-column DNase digestion according to the manufacturer's instructions. The cDNA template was synthesized using Omniscript Reverse Transcriptase and oligo-dT primer (Qiagen). The PCR reaction was carried out using iQ SYBR green super mix and MyiQ single-color real-time PCR detection system (Biorad) with incubation times of 2 min at 95° C., followed by 40 cycles of 95° C./30 s and 60° C./30 s. Specificity of the amplification was checked by melting curve analysis and by agarose gel electrophoresis. Primer sequences for mouse NGAL mRNA (Genbank NM_008491) were […] (forward primer, positions 93-112) and […] (reverse, 576-557). Sequences for mouse β-actin mRNA (Genbank X03672) were […] (forward, 415-434) and […] (reverse, 696-677). Each plate included a dilution series of standard sample, which was used to determine mRNA quantities. The NGAL mRNA content was normalized by β-actin mRNA.

[2] = system: heme oxygenase-1 (HO-1); assay: Heme oxygenase-1 immunoblot of kidney
Source text: as §1

[3] = system: N-cadherin; assay: N-cadherin immunofluorescence and immunoblot in ischemic kidney; conditions: pre-treatment with NGAL, 6 or 24 hours of reperfusion
Source text: as §1

[4] = system: cortical tubules; assay: BrdU uptake: percent of cortical tubules with BrdU-positive cell; conditions: NGAL pretreated, 24 hours after insult; ischemic 1.9%, sham 3.7%
Source text: as §1

[5] = Uptake of intravenous NGAL into kidney and urine (immunofluorescence, Western blot); conditions: within one hour of iv injection of 250 μg
Protocol: Purified endotoxin-free NGAL was administered either intravenously into mice via tail vein injections, subcutaneously, or intraperitoneally. In preliminary studies, animals were treated with three different concentrations of NGAL (50, 100, or 250 μg of a 250 μg/100 solution), subjected to 30 minutes of bilateral renal artery clamping one hour later, and examined after 24 hours of reflow. […] All subsequent studies as reported here were carried out using the 250 μg dose of NGAL. Comparisons were made between five different animal groups: non-ischemic controls (n=8), ischemic controls pre-treated with saline alone (n=8), NGAL pre-treated one hour prior to renal artery clamping (n=6), NGAL treated during renal artery clamping (n=6), and NGAL treated one hour post renal artery clamping (n=6).
For NGAL detection, frozen kidney sections were permeabilized with 0.2% Triton X-100 in PBS for 10 min, blocked with goat serum for 1 hr, and incubated with primary antibody to NGAL (1:500 dilution) for 1 hr. Slides were then exposed for 30 min in the dark to secondary antibodies conjugated with Cy5 (Amersham, Arlington Heights, Ill.), and visualized with a fluorescent microscope (Zeiss Axiophot) equipped with rhodamine filters.

[6] = system: mouse model of ATN or ischemia/reperfusion injury; assay: Kidney histology in mouse ATN model; conditions: NGAL-treated ATN kidneys vs ATN
Protocol: Male C57BL/6 mice (20-25 gr; Charles River) were anesthetized with intraperitoneal pentobarbital (50 mg/kg) and placed on a heating pad under a warming light to maintain 37© core body temperature. Kidneys were exposed through an abdominal section and the right kidney was either removed or its vascular pedicle and ureter ligated. The vascular pedicle of the left kidney or both kidneys was clamped by a microaneurysm clip (Kent Scientific) for 30 minutes after right nephrectomy. This period of ischemia generated reproducible renal injury but minimized mortality. During the procedure, PBS (0.5 ml) was used to dampen the peritoneum. The animal was closed with 5-0 Nylon. Saline, NGAL, retinol-loaded retinol binding protein (RBP), enterochelin, or desferroxamine mesylate (DFO) were injected into the peritoneum or subcutaneously 15 min. prior to ischemia or 1-2 hr after reperfusion.
After 6 or 24 hr of reperfusion, heparinized plasma, urine and kidney samples were obtained to measure NGAL (polyclonal 1:500), Heme oxygenase-1 (Stressgen, 1:2000), E-cadherin (BD Transduction Labs, 1:2000), N-cadherin (BD Transduction Labs, 1:3000) and GAPDH (Chemicon International, 1:3000) using immunoblots. Plasma was also used for creatinine and blood urea nitrogen colorimetric assays. Sagittal sections of the kidney were fixed in 4% formalin, or were snap frozen for mRNA and protein analysis. […]

B1: NGAL: Purified endotoxin-free recombinant NGAL expressed as GST fusion protein in bacteria, thrombin cleaved (protein, UniProt P80188 21-198, looked up)
Neutrophil …: QDSTSDLIPAPPLSKVPLQQNFQDNQFQGKWYVVGLAGNAILREDKDPQKMYATIYELKEDKSYNVTSVLFRKKKCDYWIRTFVPGCQPGEFTLGNIKSYPGLTSYLVRVVSTNYNQHAMVFFKKVSQNREYFKITLYGRTKELTSELKENFIRFSKSLGLPENHIVFPVPIDQCIDG
With B1 the “reduction of the increase in endogenous NGAL RNA” value ([1]; 24 hours of reperfusion, real time PCR) was 72%±16, the “endogenous NGAL protein in the kidney” value ([1]; NGAL-treated ischemia, ischemia 73±7) was 29 ± 7 µg/g and the “reduction of endogenous NGAL protein in the kidney” value ([1]; immunoblot) was 2.5 fold. For the same molecule, the “upregulation of HO-1 over ATN alone” value ([2]; ATN-injured mice, 10-100 μg NGAL, 24 hours after reperfusion) was 5-10 fold, the “expression of HO-1 after NGAL injection” value ([2]; healthy mice (Sham), increasing doses of NGAL) was “much less than the NGAL-treated ATN-injured kidneys” and the “N-cadherin expression in ischemic kidney” value [3] was “preserved N-cadherin immunofluorescence, enhanced the expression of full length N-cadherin and reduced the appearance of its fragment; also recorded: rescued”. The “percent of cortical tubules with at least one BrDU-positive tubular cell” value [4] was 3.9%±0.5, the “NGAL in urine by Western blot” value [5] was “detected in the urine within one hour of injection; also recorded: easily detected in the kidney and urine” and the “NGAL in kidney by immunofluorescence” value ([5]; ischemic mice) was “easily detected in a punctate cytoplasmic distribution predominantly in the proximal tubules”. The “kidney histology (tubule morphology)” value [6] was “normal epithelial morphology was preserved in the S1 and S2 segments of the proximal tubule; also recorded: preservation of cortical tubules, but residual cortical-medullary casts”.
